Experimental data published in publication PMC11976344.
Ends that are not written are not given here.

Tests used:
CCL8 [1] = target: CCL8 (UniProt P80075)
CCL8 [2] = target: CCL8 (UniProt P80075); remark: listed apart in the source

UniProt P80075, sequence (P80075 24-99): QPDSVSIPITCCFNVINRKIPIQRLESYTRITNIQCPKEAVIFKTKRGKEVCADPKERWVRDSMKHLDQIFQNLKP

Molecule	IC50 of inhibition of CCL8-induced THP1 cell migration (CCL8 [1])	IC50 of inhibition of CCL8-driven THP-1 cell migration (dose-response peptide titration) (CCL8 [2])
Evasin P672 (natural protein)	4.6 to 10 nM	–
YEDEDYEDFFKPVTCYF (also: dimer via disulfide between the Cys of the two copies) [BK1.3 (17-mer synthetic dimeric peptide derived from Evasin P672)]	–	4.2 nM
